Measurements from US11839630B2, “CAR-T cells targeting IL-1RAP and their use” (ETABLISSEMENT FRANCAIS DU SANG, priority 2017, dated 2023).
Values joined by “and” are separate entries in the source; they are usually repeats but may differ in a detail not shown here. Equal entries are not always repeated.

Biological target: T1, IL-1RAP (Homo sapiens, UniProt Q9NPH3)
T1 sequence (Q9NPH3 21-570): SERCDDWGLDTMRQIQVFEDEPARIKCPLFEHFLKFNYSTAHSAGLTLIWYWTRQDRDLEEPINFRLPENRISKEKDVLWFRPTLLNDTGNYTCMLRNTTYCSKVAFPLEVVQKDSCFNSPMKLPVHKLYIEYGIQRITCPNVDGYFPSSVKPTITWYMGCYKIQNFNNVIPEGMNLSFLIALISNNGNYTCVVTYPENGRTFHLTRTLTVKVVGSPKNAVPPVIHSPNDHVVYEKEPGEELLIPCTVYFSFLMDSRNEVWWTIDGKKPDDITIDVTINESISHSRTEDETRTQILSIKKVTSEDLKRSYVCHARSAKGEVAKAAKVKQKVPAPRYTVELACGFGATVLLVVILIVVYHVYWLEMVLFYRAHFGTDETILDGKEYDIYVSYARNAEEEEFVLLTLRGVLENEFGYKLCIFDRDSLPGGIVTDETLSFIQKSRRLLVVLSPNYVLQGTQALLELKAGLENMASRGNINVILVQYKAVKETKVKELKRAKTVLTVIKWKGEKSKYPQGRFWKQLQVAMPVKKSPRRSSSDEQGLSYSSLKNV
Experiment: Immunostaining of FDA standard frozen normal tissue array
Type: binding
Design: FDA standard frozen tissue arrays, including 90 tissue cores (30 organs) of 3 individual donors per organ; tissue US Biomax; host or cells: FDA standard frozen normal human tissue array (30 organs, 3 donors each); key to Staining intensity (0 to 3+): negative (0); weak staining (1+); moderate staining (2+); strong staining (3+)
Details: for normal tissues in which staining was detected: 30 normal human tissues, 3 donors per organ
Text: FIG. 22: (A) Tissue microarray. Representative #A3C3 staining of an US Food and Drug Administration standard frozen tissue array, including 90 tissue cores (30 organs) of 3 individual donors per organ (US Biomax, Rockville, MD, USA). Immunostaining was detected using the UltraView Universal DAB Detection Kit (Ventana, USA). Images were acquired and analyzed with NDP.view 2.0 software. […] (Scale bars, 100 μm.) High IL-1RAP (KU812)— or negative (Raji)-expressing cell lines were respectively used as positive or negative controls. (B) IL-1RAP R&D (red) or #A3C3 (blue) staining of HMEC-1 dermal endothelial cell line. Isotype IgG1 (gray) is depicted as overlay. RFI is provided for both staining.
In order to study specific or non-target tissue binding, FDA standard frozen tissue arrays, including 90 tissue cores (30 organs) of 3 individual donors per organ (US Biomax, Rockville, United States) were incubated as previously described. Immunostaining was detected using UltraView Universal DAB Detection Kit (Ventana, USA). Images were acquired and analyzed with NDP.view 2 software. High IL-1RAP (KU812) or negative (Raji) expressing cell lines were respectively used as positive or negative controls. The staining intensity was graduated as follows: negative (0), weak staining (1+), moderate staining (2+), or strong staining (3+). […]

B1: #E3C3: mouse anti-hIL-1RAP monoclonal antibody subclone generated by standard hybridoma technique; VH SEQ ID NO: 2, VL SEQ ID NO: 4 (antibody, V domains shown)
VH: MGWSCIILFLVATATGVNSQVQLQQPGAELMMPGASVKVSCEASGYTFTDSWMHWVKQRPGQGLEWIGAIDPSDSYTTYNQKFTGKATLSVDESSNTAYMQLSSLTSEDSAVYYCARYYSGSNYISPFPYWGQGTLVTVSA
VL: MESQIQVFVFVFLWLSGVDGDIVMTQSHKFMSTSVGDRVTITCKASLDVSTAVAWYQQKPGQSPKLLIYSASYRYTGVPDRFTGSGSGTDFTFTISSVQAEDLAVYYCQQHYSPPFTFGSGTNLEIK
modifications: Amino acid sequence of chain H (VH) of murine scFv anti-IL-1RAP; Amino acid sequence of chain K (VL) of murine scFv anti-IL-1RAP
normal tissues in which staining was detected: only 6 tissues as Lymph node, colon, small intestine, placenta, stomach and prostate | normal tissues in which staining was detected (listed as #A3C3): only six tissues: lymph node, prostate, skeletal muscle, stomach, colon and small intestine, and pancreas | Staining intensity (0 to 3+) (Adrenal gland, replicates): 0 | Staining intensity (0 to 3+) (Cerebellum tissue, replicates): 0 | Comments: epithelial cells stained (Colon): Epithelial cells (~30%); | Comments: inflammatory elements stained (Colon): inflammatory elements (100%) | Staining intensity (0 to 3+) (Colon, replicates): 3+ | Staining intensity (0 to 3+) (Esophagus, replicates): 0 | Staining intensity (0 to 3+) (Heart, replicates): 0 | Staining intensity (0 to 3+) (Kidney, replicates): 0 | Staining intensity (0 to 3+) (Liver, replicates): 0 | Comments: stained elements (Lung): Few inflammatory elements | Staining intensity (0 to 3+) (Lung, replicates): 2+ | Comments: endothelial cells stained (Lymph node): ~30% of endothelial cells | Staining intensity (0 to 3+) (Lymph node, replicates, listed as mAb#A3C3): 2+ and 1+ | Staining intensity (0 to 3+) (Ovary, replicates): 0 | Staining intensity (0 to 3+) (Pancreas, replicates): 1+ | Staining intensity (0 to 3+) (Peripheral nerve, replicates): 0 | Staining intensity (0 to 3+) (Pituitary gland, replicates): 0 | Comments: cytotrophoblast cells stained (Placenta): Cytotrophoblast cells (~10%) | Staining intensity (0 to 3+) (Placenta, replicates): 0 | Comments: endothelial cells stained (Prostate): ~10% of endothelial cells | Staining intensity (0 to 3+) (Prostate, replicates, listed as mAb#A3C3): 1+ (2×) and 0 (4×) | Staining intensity (0 to 3+) (Salivary gland, replicates): 0 | Comments: endothelial cells stained (Skeletal muscle): ~10% of endothelial cells | Staining intensity (0 to 3+) (Skeletal muscle, replicates (first listing), listed as mAb#A3C3): 1+ and 0 (2×) | Staining intensity (0 to 3+) (Skeletal muscle, replicates (second listing)): 0 | Staining intensity (0 to 3+) (Skin, replicates): 0 | Comments: epithelial cells stained (Small intestine): Epithelial cells (~30%); | Comments: inflammatory elements stained (Small intestine): inflammatory elements (100%) | Staining intensity (0 to 3+) (Small intestine, replicates, listed as mAb#A3C3): 2+ and 0 and 1+ | Staining intensity (0 to 3+) (Smooth muscle, replicates): 0 | Staining intensity (0 to 3+) (Spinal cord, replicates): 0 | Comments: stained elements (Spleen): Necrotic elements | Staining intensity (0 to 3+) (Spleen, replicates): 3+ | Comments: epithelial cells stained (Stomach): few epithelial cells <10% | Comments: gastric mucosa cells stained (Stomach): Few gastric mucosa cells (~10%); | Staining intensity (0 to 3+) (Stomach, replicates, listed as mAb#A3C3): 1+ and 0 (2×) | Staining intensity (0 to 3+) (Testis, replicates): 0 | Staining intensity (0 to 3+) (Thyroid gland, replicates): 0 | Staining intensity (0 to 3+) (Ureter, replicates): 0 | Staining intensity (0 to 3+) (Uterine cervix, replicates): 0
